In article PMC7111318 one finds Kd data, which are given here for two substances.

The assay addresses Echo 6 virus full particle (strain SJZ-366) (Echovirus 6 strain SJZ-366). The assay can be described thus: SPR. Background: Surface plasmon resonance follows binding to a sensor surface in real time, without labels.

The term Kd denotes the free concentration of one partner at which half of the binding sites on the other are occupied at equilibrium, for simple one-to-one binding. A high value points to weaker binding.

For “Human CD55 soluble protein (extracellular domain) (from UniProt P08174-1 35-285) (domain or fragment)”, the Kd is 0.375 µM.
Regarding “Human FcRn soluble protein (FCGRT extracellular domain + β2 m) (from UniProt P61769 21-119) (complex)”, the Kd was found to be 0.242 µM.
